Experimental data reported in the supplement of paper PMC9112550, “Optimization of the antimicrobial peptide Bac7 by deep mutational scanning” (BMC Biology, 2022).

test system: Escherichia coli TOP10; assay: shrunken log2 fold change of peptide-encoding DNA abundance (4.5 h post-induction vs induction); higher = less antimicrobial activity (less host growth inhibition); settings: time post-induction: 4.5 h; library: site-saturation at positions 5, 18, 19, 20
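Note: peptides expressed intracellularly from a pBAD plasmid library in pooled LB shake-flask culture, induced with 0.3% L-arabinose, DNA abundance read by NGS, three biological replicates, DESeq2 with apeglm shrinkage.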

Row | Sequence | shrunken log2 fold change
1 | RRIRWRPPRLPRPRPRPHEKPRP | -0.00914
2 | RRIRTRPPRLPRPRPRPLKTPRP | -0.0866
3 | RRIRKRPPRLPRPRPRPHMGPRP | -0.0935
4 | RRIRLRPPRLPRPRPRPRFRPRP | 0.117
5 | RRIRNRPPRLPRPRPRPDYHPRP | 0.00923
6 | RRIRERPPRLPRPRPRPTMHPRP | -0.229
7 | RRIRLRPPRLPRPRPRPSGHPRP | -0.208
8 | RRIRCRPPRLPRPRPRPHQRPRP | -0.422
9 | RRIRTRPPRLPRPRPRPVVYPRP | -0.418
10 | RRIRLRPPRLPRPRPRPAWWPRP | 0.173
11 | RRIRARPPRLPRPRPRPCFFPRP | 0.145
12 | RRIRTRPPRLPRPRPRPQYRPRP | -0.0697
13 | RRIRFRPPRLPRPRPRPPFVPRP | -0.0145
14 | RRIRNRPPRLPRPRPRPLHKPRP | -0.101
15 | RRIRVRPPRLPRPRPRPRYHPRP | -0.36
16 | RRIRMRPPRLPRPRPRPDRVPRP | 0.0719
17 | RRIRQRPPRLPRPRPRPCYIPRP | -0.191
18 | RRIRGRPPRLPRPRPRPQVIPRP | -0.0421
19 | RRIRQRPPRLPRPRPRPCHPPRP | -0.032
20 | RRIRGRPPRLPRPRPRPIFIPRP | -0.0812
21 | RRIRRRPPRLPRPRPRPQQCPRP | 0.15
22 | RRIRVRPPRLPRPRPRPRTYPRP | -0.309
23 | RRIRARPPRLPRPRPRPHLNPRP | 0.102
24 | RRIRDRPPRLPRPRPRPPDKPRP | 0.189
25 | RRIRGRPPRLPRPRPRPQTVPRP | 0.19

Row | Sequence | shrunken log2 fold change
26 | RRIRMRPPRLPRPRPRPEYQPRP | 0.0424
27 | RRIRNRPPRLPRPRPRPQSAPRP | -0.073
28 | RRIRLRPPRLPRPRPRPGTFPRP | 0.0118
29 | RRIRMRPPRLPRPRPRPTFVPRP | 0.134
30 | RRIRRRPPRLPRPRPRPTITPRP | 0.0541
31 | RRIRMRPPRLPRPRPRPGLYPRP | -0.196
32 | RRIRVRPPRLPRPRPRPQCAPRP | 0.135
33 | RRIRNRPPRLPRPRPRPPIFPRP | 0.0391
34 | RRIRFRPPRLPRPRPRPFYAPRP | -0.542
35 | RRIRRRPPRLPRPRPRPWRKPRP | 0.302
36 | RRIRTRPPRLPRPRPRPRKMPRP | -0.107
37 | RRIRSRPPRLPRPRPRPVGFPRP | 0.334
38 | RRIRGRPPRLPRPRPRPMNFPRP | -0.0655
39 | RRIRLRPPRLPRPRPRPHMDPRP | -0.549
40 | RRIRLRPPRLPRPRPRPCRNPRP | -0.241
41 | RRIRMRPPRLPRPRPRPCQRPRP | 0.0132
42 | RRIRNRPPRLPRPRPRPEMRPRP | -0.0181
43 | RRIRYRPPRLPRPRPRPDAQPRP | -0.0145
44 | RRIRHRPPRLPRPRPRPRKIPRP | 0.051
45 | RRIRWRPPRLPRPRPRPPYSPRP | -0.262
46 | RRIRGRPPRLPRPRPRPLDHPRP | 0.178
47 | RRIRRRPPRLPRPRPRPIHFPRP | -0.174
48 | RRIRCRPPRLPRPRPRPKTYPRP | -0.48
49 | RRIRKRPPRLPRPRPRPACWPRP | 0.96
50 | RRIRGRPPRLPRPRPRPWGTPRP | 0.0721

Row | Sequence | shrunken log2 fold change
51 | RRIRPRPPRLPRPRPRPMLMPRP | 0.459
52 | RRIRQRPPRLPRPRPRPSEFPRP | -0.0736
53 | RRIRNRPPRLPRPRPRPKREPRP | 0.0191
54 | RRIRTRPPRLPRPRPRPQTDPRP | -0.466
55 | RRIRVRPPRLPRPRPRPDREPRP | 0.0132
56 | RRIRMRPPRLPRPRPRPVAYPRP | 0.214
57 | RRIRFRPPRLPRPRPRPACMPRP | -0.263
58 | RRIRRRPPRLPRPRPRPWNVPRP | 0.00231
59 | RRIRHRPPRLPRPRPRPLFTPRP | -0.699
60 | RRIRPRPPRLPRPRPRPFLIPRP | -0.459
61 | RRIRMRPPRLPRPRPRPCFLPRP | -0.117
62 | RRIRTRPPRLPRPRPRPQKHPRP | -0.459
63 | RRIRQRPPRLPRPRPRPSAYPRP | -0.247
64 | RRIRTRPPRLPRPRPRPTLRPRP | -0.023
65 | RRIRKRPPRLPRPRPRPFFKPRP | 0.0178
66 | RRIRQRPPRLPRPRPRPFHPPRP | -0.197
67 | RRIRQRPPRLPRPRPRPDCEPRP | -0.00144
68 | RRIRRRPPRLPRPRPRPHMTPRP | 0.00051
69 | RRIRDRPPRLPRPRPRPRCIPRP | -0.0108
70 | RRIRQRPPRLPRPRPRPLCCPRP | -0.382
71 | RRIRCRPPRLPRPRPRPQELPRP | -0.212
72 | RRIRKRPPRLPRPRPRPAHVPRP | 0.03
73 | RRIRQRPPRLPRPRPRPVIQPRP | -0.065
74 | RRIRKRPPRLPRPRPRPPKQPRP | 0.202
75 | RRIRQRPPRLPRPRPRPVYYPRP | 0.0771

Row | Sequence | shrunken log2 fold change
76 | RRIRWRPPRLPRPRPRPSCAPRP | 0.145
77 | RRIRQRPPRLPRPRPRPINYPRP | -0.0444
78 | RRIRNRPPRLPRPRPRPAMRPRP | 0.842
79 | RRIRVRPPRLPRPRPRPTTHPRP | -0.0858
80 | RRIRYRPPRLPRPRPRPNCGPRP | -0.00237
81 | RRIRTRPPRLPRPRPRPDYPPRP | 0.0242
82 | RRIRGRPPRLPRPRPRPRRTPRP | 0.67
83 | RRIRERPPRLPRPRPRPLITPRP | -0.412
84 | RRIRKRPPRLPRPRPRPTLRPRP | 1.01
85 | RRIRKRPPRLPRPRPRPACQPRP | 0.0289
86 | RRIRWRPPRLPRPRPRPVWFPRP | 0.563
87 | RRIRWRPPRLPRPRPRPAFEPRP | 0.183
88 | RRIRVRPPRLPRPRPRPSLTPRP | -0.231
89 | RRIRERPPRLPRPRPRPIHKPRP | -0.424
90 | RRIRLRPPRLPRPRPRPELSPRP | -0.113
91 | RRIRQRPPRLPRPRPRPYGHPRP | -0.473
92 | RRIRFRPPRLPRPRPRPELVPRP | 0.616
93 | RRIRNRPPRLPRPRPRPVIVPRP | -0.112
94 | RRIRGRPPRLPRPRPRPKSNPRP | 0.446
95 | RRIRPRPPRLPRPRPRPIVVPRP | -0.134
96 | RRIRARPPRLPRPRPRPGQSPRP | 0.266
97 | RRIRIRPPRLPRPRPRPANEPRP | 0.158
98 | RRIRCRPPRLPRPRPRPIDMPRP | -0.175
99 | RRIRFRPPRLPRPRPRPGYNPRP | -0.332
100 | RRIRCRPPRLPRPRPRPDIKPRP | -0.336

Row | Sequence | shrunken log2 fold change
101 | RRIRYRPPRLPRPRPRPWVSPRP | -0.013
102 | RRIRMRPPRLPRPRPRPPFIPRP | 0.082
103 | RRIRKRPPRLPRPRPRPPISPRP | 0.22
104 | RRIRKRPPRLPRPRPRPNIDPRP | -0.0981
105 | RRIRERPPRLPRPRPRPREPPRP | 0.392
106 | RRIRARPPRLPRPRPRPELFPRP | 0.7
107 | RRIRMRPPRLPRPRPRPCEHPRP | 0.249
108 | RRIRHRPPRLPRPRPRPCLGPRP | 0.0158
109 | RRIRARPPRLPRPRPRPHDRPRP | 0.128
110 | RRIRKRPPRLPRPRPRPIGCPRP | -0.000243
111 | RRIRMRPPRLPRPRPRPICYPRP | -0.119
112 | RRIRYRPPRLPRPRPRPFYNPRP | -1.15
113 | RRIRTRPPRLPRPRPRPRTTPRP | 0.419
114 | RRIRMRPPRLPRPRPRPVNQPRP | -0.0449
115 | RRIRTRPPRLPRPRPRPCDTPRP | -0.116
116 | RRIRHRPPRLPRPRPRPGEDPRP | 0.0147
117 | RRIRGRPPRLPRPRPRPHIWPRP | 0.00296
118 | RRIRSRPPRLPRPRPRPMICPRP | -0.0898
119 | RRIRPRPPRLPRPRPRPLITPRP | -0.357
120 | RRIRHRPPRLPRPRPRPLVDPRP | -0.219
121 | RRIRHRPPRLPRPRPRPEYIPRP | 0.00452
122 | RRIRHRPPRLPRPRPRPLGCPRP | 0.116
123 | RRIRGRPPRLPRPRPRPSIGPRP | 0.0763
124 | RRIRERPPRLPRPRPRPESCPRP | -0.0125
125 | RRIRMRPPRLPRPRPRPDRPPRP | 0.107

Row | Sequence | shrunken log2 fold change
126 | RRIRERPPRLPRPRPRPTCCPRP | -0.0839
127 | RRIRLRPPRLPRPRPRPNRKPRP | -0.223
128 | RRIRKRPPRLPRPRPRPDKNPRP | 0.159
129 | RRIRYRPPRLPRPRPRPETYPRP | -0.372
130 | RRIRCRPPRLPRPRPRPSVIPRP | -0.0544
131 | RRIRPRPPRLPRPRPRPTDEPRP | -0.128
132 | RRIRKRPPRLPRPRPRPLHTPRP | -0.368
133 | RRIRWRPPRLPRPRPRPIMTPRP | -0.00859
134 | RRIRPRPPRLPRPRPRPMYEPRP | -0.527
135 | RRIRTRPPRLPRPRPRPKIRPRP | 0.0372
136 | RRIRPRPPRLPRPRPRPDFDPRP | -0.03
137 | RRIRHRPPRLPRPRPRPWSTPRP | -0.0631
138 | RRIRMRPPRLPRPRPRPVRMPRP | 0.132
139 | RRIRDRPPRLPRPRPRPVGCPRP | 0.229
140 | RRIRERPPRLPRPRPRPSQLPRP | -0.127
141 | RRIRVRPPRLPRPRPRPPHWPRP | 0.489
142 | RRIRRRPPRLPRPRPRPWHKPRP | -0.384
143 | RRIRIRPPRLPRPRPRPMNMPRP | -0.375
144 | RRIRGRPPRLPRPRPRPHCMPRP | -0.207
145 | RRIRNRPPRLPRPRPRPMVYPRP | 0.0157
146 | RRIRSRPPRLPRPRPRPWIHPRP | -0.338
147 | RRIRKRPPRLPRPRPRPEQDPRP | 0.0646
148 | RRIRVRPPRLPRPRPRPSYCPRP | -0.18
149 | RRIRIRPPRLPRPRPRPASCPRP | -0.1
150 | RRIRLRPPRLPRPRPRPRINPRP | -0.0907
